Reference: patent US20150023979A1 (VALDOSPAN, published 2015)

What was measured:
[1] = target: T1, HPV5 E7 protein (beta-papillomavirus), recombinant (His-TEV-E7 fusion from E. coli) (Human Papilloma Virus type 5 (HPV5), UniProt P06932 1-103); experiment: ELISA and dot-blot
T1 construct: mature; also called VE7_HPV05; not shown: N-terminal 6x Histidine tag and TEV cleavage site of the vector
T1 sequence: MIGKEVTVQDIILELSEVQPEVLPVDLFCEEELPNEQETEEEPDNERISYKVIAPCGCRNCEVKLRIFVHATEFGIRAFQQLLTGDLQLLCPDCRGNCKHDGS

[2] = target: T2, HPV6 E7 protein (low risk type), recombinant (His-TEV-E7 fusion from E. coli) (Human Papilloma Virus type 6 (HPV6), UniProt Q84292 1-98); experiment: ELISA and dot-blot
T2 construct: mature; the only HPV6 entry in the list of constructs is VE7_HPV6A; also called VE7_HPV6A; not shown: N-terminal 6x Histidine tag and TEV cleavage site of the vector
T2 sequence: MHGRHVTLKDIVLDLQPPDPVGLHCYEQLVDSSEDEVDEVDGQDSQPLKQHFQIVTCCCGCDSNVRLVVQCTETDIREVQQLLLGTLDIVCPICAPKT

[3] = target: T3, HPV11 E7 protein (low risk type), recombinant (His-TEV-E7 fusion from E. coli) (Human Papilloma Virus type 11 (HPV11), UniProt P04020 1-98); experiment: ELISA and dot-blot
T3 construct: mature; also called VE7_HPV11; not shown: N-terminal 6x Histidine tag and TEV cleavage site of the vector
T3 sequence: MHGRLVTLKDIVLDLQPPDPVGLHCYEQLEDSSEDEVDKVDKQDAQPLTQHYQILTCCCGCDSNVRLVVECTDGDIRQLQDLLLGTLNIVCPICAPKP

[4] = target: T4, HPV38 E7 protein (beta-papillomavirus), recombinant (His-TEV-E7 fusion from E. coli) (Human Papilloma Virus type 38 (HPV38), UniProt Q80908 1-100); experiment: ELISA and dot-blot
T4 construct: mature; also called HPVE7 38; VE7_HPV38; not shown: N-terminal 6x Histidine tag and TEV cleavage site of the vector
T4 sequence: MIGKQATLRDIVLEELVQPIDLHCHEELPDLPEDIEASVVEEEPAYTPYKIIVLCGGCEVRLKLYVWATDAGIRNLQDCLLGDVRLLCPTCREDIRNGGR

[5] = target: T5, HPV35 E7 protein, recombinant (His-TEV-E7 fusion from E. coli) (Human Papilloma Virus type 35 (HPV35), UniProt P27230 1-99, CKII phosphorylation of the consensus site serines in the antigen preparation of Example 2); experiment: ELISA and dot-blot, semiquantitative crossreactivity (+ weak interaction)
T5 construct: mature; also called VE7_HPV35; not shown: N-terminal 6x Histidine tag and TEV cleavage site of the vector
T5 sequence: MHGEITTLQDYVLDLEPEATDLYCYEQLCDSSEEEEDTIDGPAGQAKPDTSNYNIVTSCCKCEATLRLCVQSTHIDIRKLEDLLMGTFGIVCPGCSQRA

[6] = target: T6, HPV31 E7 protein, recombinant (His-TEV-E7 fusion from E. coli) (Human Papilloma Virus type 31 (HPV31), UniProt P17387 1-98, CKII phosphorylation of the consensus site serines in the antigen preparation of Example 2); experiment: ELISA and dot-blot, semiquantitative crossreactivity (++ strong positive)
T6 construct: mature; also called VE7_HPV31; not shown: N-terminal 6x Histidine tag and TEV cleavage site of the vector
T6 sequence: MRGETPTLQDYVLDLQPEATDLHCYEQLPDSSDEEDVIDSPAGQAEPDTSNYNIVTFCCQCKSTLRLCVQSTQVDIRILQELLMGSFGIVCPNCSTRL

[7] = target: T7, HPV52 E7 protein, recombinant (His-TEV-E7 fusion from E. coli) (Human Papilloma Virus type 52 (HPV52), UniProt P36831 1-99, CKII phosphorylation of the consensus site serines in the antigen preparation of Example 2); experiment: as above
T7 construct: mature; also called VE7_HPV52; not shown: N-terminal 6x Histidine tag and TEV cleavage site of the vector
T7 sequence: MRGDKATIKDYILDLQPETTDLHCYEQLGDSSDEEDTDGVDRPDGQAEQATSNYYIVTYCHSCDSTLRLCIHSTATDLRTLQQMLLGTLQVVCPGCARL

[8] = target: T8, HPV33 E7 protein, recombinant (His-TEV-E7 fusion from E. coli) (Human Papilloma Virus type 33 (HPV33), UniProt P06429 1-97, CKII phosphorylation of the consensus site serines in the antigen preparation of Example 2; biotin on primary amines in the SPR assay); experiment: as above
T8 construct: mature; also called VE7_HPV33; not shown: N-terminal 6x Histidine tag and TEV cleavage site of the vector
T8 sequence: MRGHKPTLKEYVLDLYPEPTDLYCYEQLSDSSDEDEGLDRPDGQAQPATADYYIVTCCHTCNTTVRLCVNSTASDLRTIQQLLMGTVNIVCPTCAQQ

[9] = target: T9, HPV45 E7 protein, recombinant (His-TEV-E7 fusion from E. coli) (Human Papilloma Virus type 45 (HPV45), UniProt P21736 1-106, CKII phosphorylation of the consensus site serines in the antigen preparation of Example 2; biotin on primary amines in the SPR assay); experiment: ELISA and dot-blot, semiquantitative crossreactivity
T9 construct: mature; also called VE7_HPV45; not shown: N-terminal 6x Histidine tag and TEV cleavage site of the vector
T9 sequence: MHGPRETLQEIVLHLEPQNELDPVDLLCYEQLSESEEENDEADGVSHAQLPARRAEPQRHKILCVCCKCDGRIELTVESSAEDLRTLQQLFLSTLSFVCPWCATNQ

[10] = target: T10, HPV51 E7 protein, recombinant (His-TEV-E7 fusion from E. coli) (Human Papilloma Virus type 51 (HPV51), UniProt P26558 1-101, CKII phosphorylation of the consensus site serines in the antigen preparation of Example 2); experiment: as above
T10 construct: mature; also called VE7_HPV51; not shown: N-terminal 6x Histidine tag and TEV cleavage site of the vector
T10 sequence: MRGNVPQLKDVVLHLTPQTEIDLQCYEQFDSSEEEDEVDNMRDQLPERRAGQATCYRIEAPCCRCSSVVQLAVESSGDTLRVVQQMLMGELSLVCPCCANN

B1: ACAB161 (antibody, IgG2a, V domains shown)
VH: EVMLVESGGGLVKPGGSLKLSCAASGFTFSRYTMSWVRQTPEKRLEWVATISSGGTNTNYTDSVKGRFTISRDNAKNNLYLQMSSLRSEDTALYYCTRGVRRGDGYAMDYWGQGTSVTVSS
VL: DIVLTQAAPSVPVTPGESVSISCRSTKSLLHSNGNTYLYWFLQRPGQSPQALIYRTSNLASGVPDRFSGSGSGTAFTLRISRVEAEDVGVYYCMQHLEYPLTFGAGTKLELKR
notes: the printed entries run on into the first residues of the constant domains; also called HPV16E7 IgG2a antibody ACAB161
binding result [1]: no binding | binding result [2]: no binding | binding result [3]: no binding | binding result [4]: no binding | binding result [5]: binds | binding result [6]: binds | binding result [7]: binds | binding result [8]: binds | binding result [9]: no binding | binding result [10]: no binding

B2: ACAB452 (antibody, IgG1, V domains shown)
VH: DVQLQESGPGLVKPSQSLSLTCTVTGYSITSDYAWNWIRQFPGNKLEWVGYITYSGSTNYNPSLKSRISITRDTSKNQFFLQFNSVTSEDTATYFCARSWFAYWGQGTLVTVSS
VL: DIVMTQTPLSLPVSLGDQASISCRSSQSLVHSNGNTYLHWFLQKPGQSPKLLIYKVSNRFSGVPDRFSGSGSGTDFTLKISRVEAEDLGVYFCLQSAHVPLTFGAGTKLELTR
notes: also called HPV45E7 IgG1 antibody ACAB452
binding result [1]: no binding | binding result [2]: no binding | binding result [3]: no binding | binding result [4]: no binding | binding result [5]: binds

B3: ACAB164 (antibody, V domains shown)
VH: EVQLQQSGLALVQPGASVKISCRTSGYTFTEYTLHWVKQSHGKSLEWIGGINPNNGSPKYNQKFKGKATLTVDKSSSTAYMELRSLTSEDSAVYYCARLDINSFFDYWGQGTTLTVSS
VL: DVVMTQSPLSLPVSLGDQASISCRSSQSLVHSNGNTYLQWYLQKPGQSPKLLIYKLSNRFSGVPDRFSGSGSGTDFTLKISRVEAEDLGVYSCSQTTHVPPTFGGGTKLEIKR
notes: the printed entries run on into the first residues of the constant domains; also called HPV16E7 IgG2a antibody ACAB164
binding result [1]: no binding | binding result [2]: no binding | binding result [3]: no binding | binding result [4]: no binding | binding result [6]: binds | binding result [7]: binds | binding result [8]: binds | binding result [9]: no binding | binding result [10]: no binding
